Test results: patent US20020107174A1, “COMPOSITION COMPRISING ENDOTOXIN NEUTRALIZING PROTEIN AND DERIVATIVES AND USES THEREOF” (priority 1998, published 2002)

Experiments:
Bortadella sp. = assay: Growth inhibition of Bortadella sp., optical density; details: GMS alone
Description: An LAL 5000 spectrophotometer (Associates of Cape Cod) was used to monitor optical density changes over time when bacteria were grown in sterilized Luria broth (LB). The LAL 5000 can accommodate up to 32 individual 10×75 mm glass test tubes in its circular array. Automated temperature control was maintained at 37° C. for these experiments. LB was placed into sterile, oven depyrogenated glass test tubes. […] Other gram-negative (E. coli strains Rosenbergii sp., K12, X10, HB101, Shewanella sp., Bortadella sp.) and gram-positive bacteria (e.g., S. aureus, and Bacillus spp.) were grown in this manner and changes in optical density were monitored over time. The optical density data was collected, stored and analyzed by computer which was interfaced with the LAL 5000.
The tubes were then inoculated with cells from a log phase culture of Bortadella sp. Optical density of each tube was monitored via method described above.

E. coli strain 25303 = assay: Growth inhibition of E. coli in Luria broth, optical density (LAL 5000); type: cell-based
Description: E. coli cells were cultured overnight at 37° C. in LB. Aliquots were diluted 1:100 in fresh LB (control). LB plus PMB was serially diluted from 0.25 μg/ml to 0.001 μg/ml. LB plus Limulus ENP was formulated at concentrations from 20 to 0.07,μg/ml. Optical density of the cell culture was recorded at 410 nm during the course of the experiment.
The tubes were then inoculated with cells of a log phase E. coli culture.
TET was serially diluted with LB in ten-fold increments from 10 μg/ml to 0.0001 μg/ml.
E. coli cells were cultured overnight at 37° C. in LB. Aliquots of the culture were diluted 1:100 in fresh LB as controls. Test samples consisted of cells in: LB plus AMP at 2.5 μg/ml; LB plus Limulus ENP at 25 and 5 μg/ml; and combination of 2.5 μg/ml AMP and either 2.5 or 5.0 μg/ml Limulus ENP. Optical density of the cell samples was recorded at 410 nm during the course of the experiment.

[1] = test system: Propionibacterium acnes, ATCC No. 11827; assay: Zone inhibition assay; type: cell-based; details: 4 mm disc treated with 10 μl (Limulus ENP 1 mg/ml; benzoyl peroxide 0.05%), overnight at 37° C.
Description: The inhibitory effect of a recombinant Limulus ENP (i.e., that expressed from the fusion protein II construct discussed above) was tested against Propionibacterium acnes, the bacterium that causes acne, using a zone inhibition assay. Petri dishes were filled with sterile nutrient agar following standard microbiological procedures. The nutrient agar-filled dishes were allowed to cool and harden before being inoculated with test bacteria. Using a sterile swab, the surface of the petri dishes were inoculated with a culture of Propionibacterium acnes, ATCC No. 11827, that had grown overnight at 37° C.
Sterile filter paper discs (4 mm, Whatman) were treated with 10 μl of aqueous solutions of (1) recombinant Limulus ENP at a concentration of 1 mg/ml (the test sample); (2) benzoyl peroxide at a concentration of 0.05% (the positive control); or (3) sterile saline (the negative control). Benzoyl peroxide serves as a positive control because it is known to inhibit the growth of Propionibncterium acnes.
The treated filter paper discs were placed on the inoculated plates and the plates incubated overnight at 37° C. The Limulus ENP disc produced a zone of inhibition having a diameter of 4-5 mm. The benzoyl peroxide disc produced a zone of inhibition having a diameter of 10-11 mm. The negative control disc produced no zone of inhibition.

E. coli endotoxins = details: rabbits, cited from earlier work
meningococcal endotoxins = details: rabbits, cited from earlier work
E. coli cultures = assay: Endotoxin levels in antibiotic-inhibited cultures, Limulus amebocyte lysate (LAL) assay; type: cell-based
Description: Antibiotic-inhibited gram-negative bacteria release endotoxins into the medium. […] E. coli cultures treated with antibiotic alone or in combination with Limulus ENP were prepared and incubated as described in Sections 6.3.1 and 6.3.2, above. The endotoxin levels present in the cultures were measured using the standard Limulus amebocyte lysate (LAL) assay.

[2] = test system: uncharacterized gram-positive bacterium isolated from marine organisms; assay: Growth inhibition of gram-positive bacterium from marine organisms, optical density at 410 nm; type: cell-based; details: Limulus ENP at 2.5 or 5 μg/ml
Description: An uncharacterized gram-positive bacterium isolated from marine organisms was cultured overnight at 37° C. in LB. Aliquots of the culture were diluted 1:100 in fresh LB as controls. Test samples consisted of cells in LB plus LimulusENP at 2.5 or 5.0 μg/ml. The control and Limulus ENP-treated cultures were incubated at 37° C. Optical density of the cultures was recorded at 410 nm during the course of the experiment to monitor the growth of the gram-positive bacterium.

endotoxins = assay: Biological activity of recombinant Limulus ENP from S. cerevisiae; details: from pCGS965-transformed S. cerevisiae
Excerpt: In one yeast expression system, an expression construct encoding the aforementioned fusion protein I was inserted into an autonomous replicating plasmid yielding pCGS965 (FIG. 9). This plasmid, in turn, was used to transform S. cerevisiae strain 2470. pCGS965 carries the gene for uracil production, which complements the host strain's auxotrophy for this base. Recombinant Limulus ENP has been expressed, purified, and characterized from pCGS965-transformed cells grown at the 500 liter scale. Fusion protein I was expressed and correctly processed, and the Limulus ENP secreted into the medium. The recombinantly produced Limulus ENP has biological activity identical to that of ENP isolated from Limulus amebocytes.

[3] = test system: Pool 4 (Yeast): Candida parapilosis, C. albicans; assay: Preservative challenge of oil in water emulsion, plate count, Pool 4; type: cell-based; details: 0.01% (weight/volume) in emulsion, eight week period
Description: (§1) The cell numbers of the pools were quantitated by serial dilution. That is, the number of viable cells was determined by taking an aliquot from the sample, diluting it and culturing it so that colonies arising from individual cells could be counted.
(§2) An oil in water emulsion was prepared comprising the following ingredients:
(§3) To test its antimicrobial activity, Limulus ENP was added to the emulsion to achieve a concentration of about 0.01 weight percent, with appropriate adjustment of distilled water. Control and Limulus ENP-containing emulsions were inoculated with 10^8 viable cells from each of the five microorganism pools. The number of viable microbial cells was determined by plate count at the time of the initial inoculating, and at weekly intervals up to 8 weeks. After obtaining an aliquot for cell count at Week 3, microbes were re-inoculated to initial levels. The weekly cell counts are shown in Table 5 as logs of the cell number.

[4] = test system: Pool 5 (Fungi): Aspergillus niger; assay: Preservative challenge of oil in water emulsion, plate count, Pool 5; type: cell-based; details: 0.01% (weight/volume) in emulsion, eight week period
Description: as §1, §2, §3

E. coli = details: rabbits; cited from earlier work
[5] = test system: encapsulated strain of E. coli; details: rats, cited from earlier work
[6] = test system: endotoxins or lipid A from gram-negative bacteria; details: ENP added in excess; cited from earlier work
human macrophages = details: cited from earlier work
[7] = test system: Escherichia coli endotoxin; details: rats; cited from earlier work
murine splenocytes = details: cited from earlier work
human endothelial cells = details: cited from earlier work
[8] = test system: rough gram-negative bacteria; details: cited from earlier work
[9] = compared with anti-endotoxin antibody HA-1A

Question: For gentamycin sulfate [GMS], which “lowest effective concentration which almost totally inhibited the growth of Bortadella sp.” value (Bortadella sp.) is on record?
Answer: 10 µg/mL

Question: And the “effective concentration which substantially inhibits the growth of E. coli” value (E. coli strain 25303; GMS alone, Luria broth)?
Answer: 0.5 µg/mL

Question: Which “zone of inhibition, diameter” value [1] does the source give for `O=C(OOC(=O)c1ccccc1)c1ccccc1` [benzoyl peroxide, reference compound] here?
Answer: 10-11 mm

Question: Which shock and mortality (E. coli endotoxins; pretreatment with PMB, potent dose of E. coli endotoxins) does the source give for polymixin B [PMB, reference compound] here?
Answer: effective in preventing shock and mortality

Question: And the “inhibition of growth of E. coli” value (E. coli strain 25303; 0.06 μg/ml PMB alone)?
Answer: approximately 20%

Question: What about the “lowest effective concentration which totally inhibited the growth of E. coli” value (E. coli strain 25303; PMB alone, Luria broth) of the same molecule?
Answer: 5 µg/mL

Question: What about the “physiologic functions or mortality” value (meningococcal endotoxins; pretreatment with PMB alone) of the same molecule?
Answer: failed to improve

Question: What about the “ENDOTOXIN LEVEL” value (E. coli cultures; E. coli cultures inhibited by PMB at 5 μg/ml) of the same molecule?
Answer: 3.8 µg/mL

B1: Limulus ENP: the 11.8 kDa ENP from the horseshoe crab Limulus polyphemus; residues 5 to 105 of SEQ ID NO:2 or SEQ ID NO:5 (protein, listed as Limulus polyphemus)
chain: DGIWTQLIFTLVNNLATLWQSGDFQFLDHECHYRIKPTFRRLKWKYKGKFWCPSWTSITGRATKSSRSGAVEHSVRNFVGQAKSSGLITQRQAEQFISQYN
Question: For B1, which “growth of the gram-positive bacterium” value [2] is on record?
Answer: effectively inhibited

Question: What about the “biological activity compared with ENP isolated from Limulus amebocytes” value (endotoxins) of the same molecule?
Answer: identical

Question: What about the “killing and re-growth of the yeasts Candida parapilosis and Candida albicans” value [3] of the same molecule?
Answer: effective at killing and preventing the re-growth

Question: And the “effect on the fungus Aspergiltus niger” value [4]?
Answer: limited fungal growth

Question: And the “zone of inhibition, diameter” value [1]?
Answer: 4-5 mm

Question: And the “effect of serum proteins on biological activity, antimicrobial properties and endotoxin binding activity” value (E. coli cultures; serum-containing media)?
Answer: did not adversely affect

B2: ENP: protein found in horseshoe crab amebocyte lysates that binds and neutralizes the biological activity of endotoxins (protein, listed as Limulus polyphemus)
chain: DGIWTQLIFTLVNNLATLWQSGDFQFLDHECHYRIKPTFRRLKWKYKGKFWCPSWTSITGRATKSSRSGAVEHSVRNFVGQAKSSGLITQRQAEQFISQYN
Question: What does the source list for B2?
Answer: survival rate with E. coli sepsis (E. coli): improve the survival rate; physiological functions and survival rate (E. coli endotoxins; 2.5 or 5 mg/kg before lethal endotoxin challenges): significantly improved; survival rates (E. coli endotoxins; administered 30 min. after endotoxin challenge): improved survival rates; circulating endotoxin concentrations [5, 9]: significantly lower; survival rates [5, 9]: improved survival rates; lethal effect of endotoxins released by the infecting E. coli ([5]; dose of 50 mg/kg, also when administered after endotoxin had circulated): blocked the lethal effect; survival rate with E. coli sepsis [5]: improve the survival rate; endotoxin activity in the mixture [6]: greatly reduced; physiological functions and survival rate (meningococcal endotoxins; administered 30 minutes after meningococcal endotoxin challenges): significantly improved; protection against lethal meningococcal challenge (meningococcal endotoxins): protective; endotoxin induction of release of tumor necrosis factor by human macrophages (human macrophages): inhibit; protection against lethal Escherichia coli endotoxin challenge [7]: protective; endotoxin induction of mitogenesis of murine splenocytes (murine splenocytes): inhibit; endotoxin induction of activation of human endothelial cells (human endothelial cells): inhibit; growth of rough gram-negative bacteria [8]: inhibits the growth
